# Data from US20090048324.
# T1: wild type human porphobilinogen synthase (PBGS), parent construct N59/C162A
# T1 chain: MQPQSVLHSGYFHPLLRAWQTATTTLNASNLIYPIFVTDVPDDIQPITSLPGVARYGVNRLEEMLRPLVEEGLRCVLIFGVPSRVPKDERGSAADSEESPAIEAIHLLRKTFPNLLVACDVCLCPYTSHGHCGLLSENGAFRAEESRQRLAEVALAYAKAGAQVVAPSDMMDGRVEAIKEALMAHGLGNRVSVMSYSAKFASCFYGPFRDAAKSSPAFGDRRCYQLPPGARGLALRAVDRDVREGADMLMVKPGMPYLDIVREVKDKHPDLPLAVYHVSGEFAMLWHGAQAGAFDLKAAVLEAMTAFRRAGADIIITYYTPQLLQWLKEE
# How the values were obtained:
# [1] = molecular target: P30124
# [2] = molecular target: T1, wild type human porphobilinogen …
Protein,K(0.5) of the protein concentration dependent specific activity [1],K(0.5) of the protein concentration dependent specific activity in the presence of 5 µM morphlock-1 [1],protein concentration giving half maximal specific activity [1],protein concentration giving half maximal specific activity after 30 minutes with 30 µM rosmarinic acid [1],"specific activity as a function of pea PBGS concentration, DMSO control (filled circles) [1]","specific activity as a function of pea PBGS concentration, with morphlock-1 (open circles) [1]",specific activity as a function of pea PBGS subunit concentration [1],"specific activity over time after addition of ALA (filled triangles, Pool I) [2]","specific activity over time after addition of ALA (filled triangles, Pool II) [2]"
pea (Pisum sativum) porphobilinogen synthase (protein) SLPIQRRPRRNRRSPALRSAFQETTLSPANFVYPLFIHEGEEDTPIGAMPGCYRLGWRHGLLEEVAKARDVGVNSVVLFPKIPDALKTPTGDEAYNEDGLVPRSIRLLKDKYPDLIIYTDVALDPYSSDGHDGIVREDGVIMNDETVHQLCKQAVAQARAGADVVSPSDMMDGRVGAMRVALDAEGFQHVSIMSYTAKYASSFYGPFREALDSNPRFGDKKTYQMNPANYREALTEMREDESEGADILLVKPGLPYLDIIRLLRDNSPLPIAAYQVSGEYSMIKAGGALKMIDEEKVMMESLLCLRRAGADIILTYFALQAARTLCGEKR,K(0.5) of 0.064 µM PBGS,more than doubles the K(0.5) to 0.134 µM pea PBGS,half maximal activity at 3.5 µg/ml PBGS,half maximal activity at 13.5 µg/ml PBGS,rises from near 10 at about 0.008 µM to about 250 at about 0.8 µM; fitted line levels at about 275 µmol h-1 mg-1 toward 10 µM (log axis); the half-maximal K(0.5) is printed in the text,"curve shifted to the right of the DMSO curve: near 0 at about 0.008 µM, about 240 at about 0.8 µM; fitted line reaches about 290 µmol h-1 mg-1 at 10 µM (log axis); the half-maximal K(0.5) is printed in the text",rises from about 5 at 0.001 µM to a plateau of about 220 at 0.7-1 µM on a log axis,,
human PBGS variant F12L (protein) MQPQSVLHSGYLHPLLRAWQTATTTLNASNLIYPIFVTDVPDDIQPITSLPGVARYGVNRLEEMLRPLVEEGLRCVLIFGVPSRVPKDERGSAADSEESPAIEAIHLLRKTFPNLLVACDVCLCPYTSHGHCGLLSENGAFRAEESRQRLAEVALAYAKAGAQVVAPSDMMDGRVEAIKEALMAHGLGNRVSVMSYSAKFASCFYGPFRDAAKSSPAFGDRRCYQLPPGARGLALRAVDRDVREGADMLMVKPGMPYLDIVREVKDKHPDLPLAVYHVSGEFAMLWHGAQAGAFDLKAAVLEAMTAFRRAGADIIITYYTPQLLQWLKEE,,,,,,,,rises from about 1 at 0 min (fit) and about 2.5 at 15 min to a plateau of about 7.5 µmole h-1 mg-1 by 200-270 min,rises from about 18.3 at about 2 min to a plateau of about 22.2-22.4 µmole h-1 mg-1 from 30-45 min up to 150 min
